Experiment [1] concerns the target NKG2d (NKG2-D type II integral membrane protein) on NKL cells / NK cells (human) (UniProt P26718). Kind of experiment: flow cytometry on NKL cells, secondary antibody alone without primary antibody (background control), column 6 nM. (In general: A flow cytometer gives signals particle by particle.)
Experiment [2] has the same target. As to the kind of experiment: flow cytometry on NKL cells, secondary antibody alone without primary antibody (background control), column 60 nM.
For experiment [3] the target is unchanged. As to the kind of experiment: flow cytometry on NKL cells, secondary antibody alone without primary antibody (background control), column 0.6 nM.

Chain of NKG2d (NKG2-D type II integral membrane protein) on NKL cells / NK cells (human) (P26718 whole entry): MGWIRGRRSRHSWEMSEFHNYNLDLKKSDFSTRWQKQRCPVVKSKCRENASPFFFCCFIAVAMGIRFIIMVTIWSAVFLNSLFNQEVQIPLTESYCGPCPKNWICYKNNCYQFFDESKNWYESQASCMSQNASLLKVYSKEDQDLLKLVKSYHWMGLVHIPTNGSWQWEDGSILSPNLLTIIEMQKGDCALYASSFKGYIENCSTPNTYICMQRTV

Take “secondary antibody only (Goat anti hu-Fc AF647)”: the figures for the geomean fluorescence in experiment [1], in experiment [2] and in experiment [3] were 115, 63.8 and 92.6, respectively.

These data come from patent publication US20240182582A1.
